Experimental data published in article PMC4529466, “Intradermal insulin infusion achieves faster insulin action than subcutaneous infusion for 3-day wear” (Drug Delivery and Translational Research, 2015).

Assay: Postprandial serum insulin aspart pharmacokinetics after meal bolus, 3-day ID vs SC infusion
Format: in vivo, human (T1DM patients)
Conditions: for ΔAUCIns0−1: 0–1 h; for ΔAUCIns0−1 / ΔAUCIns0–1.5 / ΔAUCIns0–2 / ΔAUCIns0–4 / T50_max_falling / T50_max_rising / Tmax / ΔCmax: mean ± SD; for ΔAUCIns0–1.5: 0–1.5 h; for ΔAUCIns0–2: 0–2 h; for ΔAUCIns0–4: 0–4 h; for Intra-subject variability of Tmax: across all study days and breakfast and lunch meals
Source text: This was a single center, open-label, two-period crossover study, randomized by infusion order, in T1DM patients on continuous subcutaneous insulin infusion (CSII). The protocol was approved by an independent ethics committee (Ethikkommission der Ärztekammer Nordrhein, Düsseldorf, Germany), appropriate regulatory bodies (German Federal Institute for Drugs and Medical Devices (BfArM)), and conducted in compliance with good clinical practice (GCP), the Declaration of Helsinki, and applicable regulatory requirements.
The study was completed over a multi-week period consisting of three study visits: a screening visit (V1) and two interventional visits (V2 and V3). After establishing eligibility and enrollment, patients received treatment during two interventional visits: one SC and one ID basal/bolus infusion of insulin aspart (NovoRapid® U-100, Novo Nordisk, Copenhagen, Denmark) administered over 3 days in a randomized order.
For each dosing visit, patients arrived the evening prior to the first standardized meal to verify compliance with protocol criteria. An intravenous catheter was inserted into a peripheral vein of the arm for manual blood sampling. Infusion sets, ID (34 G × 1.5 mm length stainless steel microneedle catheter set, BD Technologies, Research Triangle Park, NC) or SC (25 G × 6 mm length soft cannula, Quick-Set, Medtronic Minimed, Northridge, CA), were connected to an insulin infusion pump (Animas® Vibe™, Animas Corporation, West Chester, PA) and primed according to the manufacturer’s instructions. Sets were placed into the patient’s abdomen (periumbilical, left or right) using a customized applicator for the ID set, or the manufacturer recommended inserter for the SC set (customized Sof-serter® and Quick-serter® respectively, both Medtronic Minimed, Northridge, CA). Due to the small adhesive surface on the microneedle catheter, a modified IV dressing (IV3000 1-Hand, Smith & Nephew, England) was used for additional securement over the catheter. A safety loop was used on all catheter lines as recommended by general insulin pump user guidance (Fig. 1c). The respective infusion sets provided all basal and bolus insulin delivery of insulin aspart for the duration of each 72-h study period. A fluid pressure transducer (BD-DTX™ Plus, Becton Dickinson, Franklin Lakes, NJ) was connected in-line between the pump reservoir and each infusion set to monitor infusion delivery pressure, with automated data capture via a commercial data logging system (LORD MicroStrain®, Williston, VT) to provide a secondary post hoc measure of delivery status. The pump/pressure monitoring system combination was contained in a waist pack for the duration of delivery due to its potentially cumbersome size.
After maintaining targeted blood glucose range during the preceding night, bolus insulin doses were administered via the respective infusion catheter prior to standardized breakfast and lunch test meals on each of the three treatment days. Each meal insulin bolus was calculated based on the patient’s insulin sensitivity and previous hours change in BG per sliding scale then delivered immediately prior to breakfast (t = 0 min) and lunch (t = 360 min) consumption. Breakfast was a high glycemic index (60 g carbohydrates) solid meal, and lunch was a mixed meal based on the individual’s calculated daily energy intake and equivalent in caloric composition by day. Breakfast and lunch meals were consumed within 15 min followed by serial blood sampling with BG monitoring for a period of 6 and 4 h, respectively. Patients were asked to remain sedentary for 2 h after meals. Identical study procedures were utilized for the remaining dosing visit days (Fig. 2).
To assess insulin absorption kinetics and glycemic response, blood samples for measurements of insulin aspart and blood glucose in serum were drawn at predefined time points throughout dosing visits. Serial samples for safety BG determination, but not PK analysis, were obtained at a minimum every 2 h. […]

[1] = ID infusion, Day 1, across meals
[2] = ID infusion, Day 2, across meals
[3] = ID infusion, Day 3, across meals
[4] = ID infusion, Days 1–3 combined, across meals, n = 141–156
[5] = SC infusion, Day 1, across meals
[6] = SC infusion, Day 2, across meals
[7] = SC infusion, Day 3, across meals
[8] = SC infusion, Days 1–3 combined, across meals, n = 141–156

## insulin aspart
ID bolus vs SC
  reduction of Tmax compared to the respective SC delivery: greater than 40%
ID bolus vs SC, p < 0.0001
  decrease of T50_max_falling, ID vs SC: ~25%
  decrease of T50_max_rising, ID vs SC: ~ 50%
[1]
  ΔAUCIns0−1: 39.5 ± 31.4 mU*h/L
  ΔAUCIns0–1.5: 56.6 ± 46.4 mU*h/L
  ΔAUCIns0–2: 68.5 ± 59.0 mU*h/L
  ΔAUCIns0–4: 86.9 ± 85.8 mU*h/L
  T50_max_falling: 108 ± 39.2 min
  T50_max_rising: 5.7 ± 2.2 min
  Tmax: 27.6 ± 13.9 min
  ΔCmax: 54.5 ± 42.1 mU/L
[2]
  ΔAUCIns0−1: 43.7 ± 36 mU*h/L
  ΔAUCIns0–1.5: 61.6 ± 54.0 mU*h/L
  ΔAUCIns0–2: 74.0 ± 67.8 mU*h/L
  ΔAUCIns0–4: 92.3 ± 94.5 mU*h/L
  T50_max_falling: 106 ± 32.6 min
  T50_max_rising: 5.8 ± 2.6 min
  Tmax: 29.1 ± 13.3 min
  ΔCmax: 58.6 ± 47.0 mU/L
[3]
  ΔAUCIns0−1: 44.8 ± 37.4 mU*h/L
  ΔAUCIns0–1.5: 62.8 ± 55.6 mU*h/L
  ΔAUCIns0–2: 75.7 ± 71.2 mU*h/L
  ΔAUCIns0–4: 94.4 ± 103 mU*h/L
  T50_max_falling: 107 ± 36.7 min
  T50_max_rising: 6.4 ± 2.3 min
  Tmax: 29.1 ± 12.5 min
  ΔCmax: 61.2 ± 51.5 mU/L
[4]
  ΔAUCIns0−1: 42.5 ± 34.7 mU*h/L
  ΔAUCIns0–1.5: 60.2 ± 51.6 mU*h/L
  ΔAUCIns0–2: 72.5 ± 65.5 mU*h/L
  ΔAUCIns0–4: 91.0 ± 93.5 mU*h/L
  T50_max_falling: 107 ± 36.1 min
  T50_max_rising: 6.0 ± 2.4 min
  Tmax: 28.5 ± 13.2 min
ID infusion, Days 1–3 combined, across meals, baseline corrected, n = 141–156
  ΔCmax: 57.9 ± 46.5 mU/L
ID
  Intra-subject variability of Tmax: 29.6 %CV
ID, across meals and days
  intra-subject Tmax variability measured by %CV: 30%
[5]
  ΔAUCIns0−1: 29.9 ± 25.3 mU*h/L
  ΔAUCIns0–1.5: 45.9 ± 38.9 mU*h/L
  ΔAUCIns0–2: 57.8 ± 50.9 mU*h/L
  ΔAUCIns0–4: 77.4 ± 76.2 mU*h/L
  T50_max_falling: 135 ± 51.1 min
  T50_max_rising: 13.2 ± 7.9 min
  Tmax: 46.0 ± 28.4 min
  ΔCmax: 47.4 ± 37.5 mU/L
[6]
  ΔAUCIns0−1: 30.6 ± 21.1 mU*h/L
  ΔAUCIns0–1.5: 48.7 ± 35.9 mU*h/L
  ΔAUCIns0–2: 62.6 ± 49.6 mU*h/L
  ΔAUCIns0–4: 85.7 ± 82.3 mU*h/L
  T50_max_falling: 143 ± 44.1 min
  T50_max_rising: 12.0 ± 9.5 min
  Tmax: 50.1 ± 19.7 min
  ΔCmax: 47.2 ± 34.8 mU/L
[7]
  ΔAUCIns0−1: 33.6 ± 25.7 mU*h/L
  ΔAUCIns0–1.5: 52.8 ± 42.5 mU*h/L
  ΔAUCIns0–2: 66.7 ± 57.0 mU*h/L
  ΔAUCIns0–4: 87.7 ± 86.9 mU*h/L
  T50_max_falling: 136 ± 39.5 min
  T50_max_rising: 11.2 ± 5.0 min
  Tmax: 47.1 ± 18.3 min
  ΔCmax: 51.5 ± 40.8 mU/L
[8]
  ΔAUCIns0−1: 31.3 ± 24 mU*h/L
  ΔAUCIns0–1.5: 49.0 ± 39.0 mU*h/L
  ΔAUCIns0–2: 62.2 ± 52.3 mU*h/L
  ΔAUCIns0–4: 83.4 ± 81.3 mU*h/L
  T50_max_falling: 138 ± 45.1 min
  T50_max_rising: 12.2 ± 7.7 min
  Tmax: 47.7 ± 22.8 min
SC infusion, Days 1–3 combined, across meals, baseline corrected, n = 141–156
  ΔCmax: 48.7 ± 37.6 mU/L
SC
  Intra-subject variability of Tmax: 36.7 %CV
SC, across meals and days
  intra-subject Tmax variability measured by %CV: 37%
Across days
  Tmax shortening, ID vs SC: ~ 19 min
  time reduction of T50%maxfalling, ID vs SC: ~31 min
  time reduction of T50%maxrising, ID vs SC: ~ 6 min
Across meals and days
  less intra-subject variability (%CV), ID compared to SC: ~ 7%
